Reference: the RNAGym collection of RNA variant scans (doi:10.7554/elife.80360)

B1: Twister Ribozyme (parent)
chain: AACACUGCCAAUGCCGGUCCCAAGCCCGGAUAAAAGUGGAGGGGGCGG

Variants of: B1
Assay: self-cleavage, relative activity (ratio to wild type); higher = more cleavage; co-transcriptional

| Variant | self-cleavage |
| --- | --- |
| AACACUGCCAAUGCCGGUCCCAAGCCCGGAUAAAAGUGGAGAGCGCGG [G42A G44C] | 0.178 |
| AACACUGCCAAUGCCGGUCCCAAGCCCGGAUAAAAGUGGAGAGUGCGG [G42A G44U] | 0.173 |
| AACACUGCCAAUGCCGGUCCCAAGCCCGGAUAAAAGUGGAGAGGCCGG [G42A G45C] | 0.187 |
| AACACUGCCAAUGCCGGUCCCAAGCCCGGAUAAAAGUGGAGAGGUCGG [G42A G45U] | 0.153 |
| AACACUGCCAAUGCCGGUCCCAAGCCCGGAUAAAAGUGGAGAGGGCCG [G42A G47C] | 0.241 |
| AACACUGCCAAUGCCGGUCCCAAGCCCGGAUAAAAGUGGAGAGGGCUG [G42A G47U] | 0.325 |
| AACACUGCCAAUGCCGGUCCCAAGCCCGGAUAAAAGUGGAGAGGGCGA [G42A G48A] | 0.296 |
| AACACUGCCAAUGCCGGUCCCAAGCCCGGAUAAAAGUGGAGAGGGCGU [G42A G48U] | 0.397 |
| AACACUGCCAAUGCCGGUCCCAAGCCCGGAUAAAAGUGGAGCGGGCGG [G42C] | 0.622 |
| AACACUGCCAAUGCCGGUCCCAAGCCCGGAUAAAAGUGGAGCGGGAGG [G42C C46A] | 0.289 |
| AACACUGCCAAUGCCGGUCCCAAGCCCGGAUAAAAGUGGAGCCGGCGG [G42C G43C] | 0.365 |
| AACACUGCCAAUGCCGGUCCCAAGCCCGGAUAAAAGUGGAGCUGGCGG [G42C G43U] | 0.137 |
| AACACUGCCAAUGCCGGUCCCAAGCCCGGAUAAAAGUGGAGCGAGCGG [G42C G44A] | 0.396 |
| AACACUGCCAAUGCCGGUCCCAAGCCCGGAUAAAAGUGGAGCGCGCGG [G42C G44C] | 0.17 |
| AACACUGCCAAUGCCGGUCCCAAGCCCGGAUAAAAGUGGAGCGGACGG [G42C G45A] | 0.329 |
| AACACUGCCAAUGCCGGUCCCAAGCCCGGAUAAAAGUGGAGCGGCCGG [G42C G45C] | 0.131 |
| AACACUGCCAAUGCCGGUCCCAAGCCCGGAUAAAAGUGGAGCGGGCAG [G42C G47A] | 0.43 |
| AACACUGCCAAUGCCGGUCCCAAGCCCGGAUAAAAGUGGAGCGGGCCG [G42C G47C] | 0.467 |
| AACACUGCCAAUGCCGGUCCCAAGCCCGGAUAAAAGUGGAGCGGGCUG [G42C G47U] | 0.491 |
| AACACUGCCAAUGCCGGUCCCAAGCCCGGAUAAAAGUGGAGCGGGCGU [G42C G48U] | 0.561 |
| AACACUGCCAAUGCCGGUCCCAAGCCCGGAUAAAAGUGGAGUGGGCGG [G42U] | 0.445 |
| AACACUGCCAAUGCCGGUCCCAAGCCCGGAUAAAAGUGGAGUGGGGGG [G42U C46G] | 0.309 |
| AACACUGCCAAUGCCGGUCCCAAGCCCGGAUAAAAGUGGAGUGGGUGG [G42U C46U] | 0.383 |
| AACACUGCCAAUGCCGGUCCCAAGCCCGGAUAAAAGUGGAGUCGGCGG [G42U G43C] | 0.114 |
| AACACUGCCAAUGCCGGUCCCAAGCCCGGAUAAAAGUGGAGUUGGCGG [G42U G43U] | 0.127 |
| AACACUGCCAAUGCCGGUCCCAAGCCCGGAUAAAAGUGGAGUGCGCGG [G42U G44C] | 0.202 |
| AACACUGCCAAUGCCGGUCCCAAGCCCGGAUAAAAGUGGAGUGUGCGG [G42U G44U] | 0.196 |

| Variant | self-cleavage |
| --- | --- |
| AACACUGCCAAUGCCGGUCCCAAGCCCGGAUAAAAGUGGAGUGGACGG [G42U G45A] | 0.294 |
| AACACUGCCAAUGCCGGUCCCAAGCCCGGAUAAAAGUGGAGUGGCCGG [G42U G45C] | 0.203 |
| AACACUGCCAAUGCCGGUCCCAAGCCCGGAUAAAAGUGGAGUGGUCGG [G42U G45U] | 0.191 |
| AACACUGCCAAUGCCGGUCCCAAGCCCGGAUAAAAGUGGAGUGGGCCG [G42U G47C] | 0.224 |
| AACACUGCCAAUGCCGGUCCCAAGCCCGGAUAAAAGUGGAGUGGGCUG [G42U G47U] | 0.296 |
| AACACUGCCAAUGCCGGUCCCAAGCCCGGAUAAAAGUGGAGUGGGCGA [G42U G48A] | 0.25 |
| AACACUGCCAAUGCCGGUCCCAAGCCCGGAUAAAAGUGGAGUGGGCGU [G42U G48U] | 0.451 |
| AACACUGCCAAUGCCGGUCCCAAGCCCGGAUAAAAGUGGAGGAGGCGG [G43A] | 0.328 |
| AACACUGCCAAUGCCGGUCCCAAGCCCGGAUAAAAGUGGAGGAGGGGG [G43A C46G] | 0.367 |
| AACACUGCCAAUGCCGGUCCCAAGCCCGGAUAAAAGUGGAGGAGGUGG [G43A C46U] | 0.315 |
| AACACUGCCAAUGCCGGUCCCAAGCCCGGAUAAAAGUGGAGGAAGCGG [G43A G44A] | 0.267 |
| AACACUGCCAAUGCCGGUCCCAAGCCCGGAUAAAAGUGGAGGACGCGG [G43A G44C] | 0.465 |
| AACACUGCCAAUGCCGGUCCCAAGCCCGGAUAAAAGUGGAGGAUGCGG [G43A G44U] | 0.271 |
| AACACUGCCAAUGCCGGUCCCAAGCCCGGAUAAAAGUGGAGGAGACGG [G43A G45A] | 0.318 |
| AACACUGCCAAUGCCGGUCCCAAGCCCGGAUAAAAGUGGAGGAGUCGG [G43A G45U] | 0.305 |
| AACACUGCCAAUGCCGGUCCCAAGCCCGGAUAAAAGUGGAGGAGGCUG [G43A G47U] | 0.175 |
| AACACUGCCAAUGCCGGUCCCAAGCCCGGAUAAAAGUGGAGGAGGCGA [G43A G48A] | 0.244 |
| AACACUGCCAAUGCCGGUCCCAAGCCCGGAUAAAAGUGGAGGAGGCGC [G43A G48C] | 0.354 |
| AACACUGCCAAUGCCGGUCCCAAGCCCGGAUAAAAGUGGAGGAGGCGU [G43A G48U] | 0.291 |
| AACACUGCCAAUGCCGGUCCCAAGCCCGGAUAAAAGUGGAGGCGGCGG [G43C] | 0.227 |
| AACACUGCCAAUGCCGGUCCCAAGCCCGGAUAAAAGUGGAGGCGGAGG [G43C C46A] | 0.111 |
| AACACUGCCAAUGCCGGUCCCAAGCCCGGAUAAAAGUGGAGGCGGGGG [G43C C46G] | 0.174 |
| AACACUGCCAAUGCCGGUCCCAAGCCCGGAUAAAAGUGGAGGCAGCGG [G43C G44A] | 0.469 |
| AACACUGCCAAUGCCGGUCCCAAGCCCGGAUAAAAGUGGAGGCCGCGG [G43C G44C] | 0.686 |
| AACACUGCCAAUGCCGGUCCCAAGCCCGGAUAAAAGUGGAGGCGCCGG [G43C G45C] | 0.267 |
| AACACUGCCAAUGCCGGUCCCAAGCCCGGAUAAAAGUGGAGGCGUCGG [G43C G45U] | 0.275 |
| AACACUGCCAAUGCCGGUCCCAAGCCCGGAUAAAAGUGGAGGCGGCGU [G43C G48U] | 0.138 |
